Reference: article PMC2064708

What was measured:
[1] = target: Shp2 (UniProt Q06124); assay: co-IP, anti-β4 IP, Shp2 blot; settings: reference: wild-type β4; sites Y1257,Y1494
[2] = target: Shp2 N-terminal SH2-containing domain (UniProt Q06124); assay: far-Western of β4 IP with GST-Shp2; settings: reference: wild-type β4

Substance: β4 integrin (from UniProt P16144-2) double mutant Y1257F/Y1494F
- binding against the reference [1]: weaker

Substance: β4 integrin (from UniProt P16144-2) β4-Y1440F
- binding against the reference ([2]; sites Y1440): weaker

Substance: β4 integrin (from UniProt P16144-2) β4-ΔShp2D (Y1257F, Y1494F)
- binding against the reference ([2]; sites Y1257,Y1494): weaker
